Binding result and Kd data for eight molecules are collected here from PMC4966504 (mAbs, 2015).

Numbering of substitutions follows the chain as printed. Names may count otherwise.

Among the targets are human CXCR4 A175D (Homo sapiens, UniProt P61073-1, A175D); human CXCR4 E179A (Homo sapiens, UniProt P61073-1, E179A); human CXCR4 A180D (Homo sapiens, UniProt P61073-1, A180D); human CXCR4 D182A (Homo sapiens, UniProt P61073-1, D182A); human CXCR4 D181A (Homo sapiens, UniProt P61073-1, D181A); human CXCR4 P191A (Homo sapiens, UniProt P61073-1, P191A); human CXCR4 N176VSE179A4 (Homo sapiens, UniProt P61073, N176VSE179A4); human CXCR4 D187RFY190A4 (Homo sapiens, UniProt P61073, D187RFY190A4); human CXCR4 L194W195A2 (Homo sapiens, UniProt P61073, L194W195A2).

Common to all, as to experiment: flow cytometry on cells
The target in experiment [1] is human CXCR4, endogenous on 293X cells (Homo sapiens, UniProt P61073).
In experiment [2] the target is human CXCR4 (G-protein C-X-C chemokine receptor 4), expressed on CHO cells (Homo sapiens, UniProt P61073-1).
Experiment [3] concerns the target human CXCR4 D181DRYI185A5 (Homo sapiens, UniProt P61073, D181DRYI185A5).

B1: MEDI3185 variant VH W52/Y52A/D53 to Ala (CDR2H) (antibody, V domains shown)
VH: QVQLVESGGGVVQPGRSLRLSCAASGFTFSNYVMHWVRQAPGKGLEWVAVIAAAGSNKYYADSVKGRFTISRDNSKNTLSLQMNSLRAEDTAVYYCERGEGYYGSGSRYRGYYYGMDVWGQGTTVTVSS
VL: DIQMTQSPSSLSASVGDRVTITCRASQGIRTDLGWYQQKPGKAPKRLIYAASSLQSGVPSRFSGSGSGTEFTLTISSLQPEDFATYYCLQHNSYPRTFGQGTKVEIK
In the case of B1, in experiment [1], the binding result is “binds”.

B2: MEDI3185 (antibody, V domains shown)
VH: B1 VH with A52W, A53Y, A54D
VL: B1 VL
One may read the Kd as a measure of binding affinity in units of concentration. As to B2, the dissociation constant Kd worked out at 0.32 nM in experiment [2]; 0.21 nM with human CXCR4 A175D; 0.25 nM in the experiment with human CXCR4 E179A; 0.32 nM in the experiment with human CXCR4 A180D; 0.32 nM with human CXCR4 D182A; 0.31 nM with human CXCR4 D181A. For the same molecule, the Kd with human CXCR4 P191A came to 0.36 nM; in the experiment with human CXCR4 N176VSE179A4 it was 0.37 nM; in experiment [3], 0.28 nM; with human CXCR4 D187RFY190A4, 0.37 nM; with human CXCR4 L194W195A2 it was 0.3 nM.

B3: MEDI3185 variant VH N31A/Y32A/V33A (CDR1H) (antibody, V domains shown)
VH: B1 VH with N31A, Y32A, V33A, A52W, A53Y, A54D
VL: B1 VL
As to B3, the binding result in experiment [1] was “binds”.

B4: MEDI3185 variant VL Q27A/G28A/I29A (CDR1L) (antibody, V domains shown)
VH: B1 VH with A52W, A53Y, A54D
VL: B1 VL with Q27A, G28A, I29A
B4: in experiment [1], the binding result is given as “binds”.

B5: MEDI3185 variant VL A50/A51 to Gly, S52 to Ala (CDR2L) (antibody, V domains shown)
VH: B1 VH with A52W, A53Y, A54D
VL: B1 VL with A50G, A51G, S52A
Consider B5, for which the binding result in experiment [1] is “binds”.

B6: MEDI3185 variant VL P95 to Ala (CDR3L) (antibody, V domains shown)
VH: B1 VH with A52W, A53Y, A54D
VL: B1 VL with P95A
Take B6: the binding result in [1] was “binds”.

B7: MEDI3185 variant VL N92/S93/Y94 to Ala (CDR3L) (antibody, V domains shown)
VH: B1 VH with A52W, A53Y, A54D
VL: B1 VL with N92A, S93A, Y94A
With B7, in experiment [1], the binding result is “binds”.

B8: MEDI3185 variant VH G54/S55/N56 to Ala (CDR2H) (antibody, V domains shown)
VH: B1 VH with A52W, A53Y, A54D, G55A, S56A, N57A
VL: B1 VL
For B8, the binding result in experiment [1] is listed as “binds”.
